Experimental data: the DeepSol protein solubility set

assay: soluble on expression in E. coli; label from the status in PepcDB or PDB records

Sequence | soluble on expression in E. coli
MSLLEYLPPGVDTDRFRPDPAARAELRKRYRLGERPTVVCLSRLVPRKGQDTLVTALPSIRRRVDGAALVIVGGGPYLETLRKLAHDCGVADHVTFTGGVATDELPAHHALADVFAMPCRTRGAGMDVEGLGIVFLEASAAGVPVIAGNSGGAPETVQHNKTGLVVDGRSVDRVADAVAELLIDRDRAVAMGAAGREWVTAQWRWDTLAAKLAEGHHHHHH | not soluble
MGSDKIHHHHHHWFMPFDNWLYQLQNADPVEISSSGFEIAVIDYSKDGSESGEYSPEEIKIMVDAGVVPVAYVNIGQAEDYRFYWKESWYTNTPEWLGEEDPAWPGNYFVKYWYNEWKEIVFSYLDRVIDQGFKGIYLDRIDSFEYWAQEGVISRRSAARKMINFVLEIAEYVRERKPDMLIIPQNGENILDFDDGQLASTVSGWAVENLFYLKTIPLEENETKSRLEYLIRLNRKGKFILSVDYVDDGSDSFENISRILDYYEKAKRNGCIPYAARSDLELDEMNVIEGIQPPEALKDYESRTYR | not soluble
GMSAPEDWNSQVIQEFRANGGRVGGNFEGAPMVLVHHVGRKTGKAAVTPMMYLPSDDDPGTIYVFASKAGAASNPAWYYNLTTAGTAQVEVGTETYAVGVTEVTGEDRDRIYSEQARRYPGFADYEKKTAGIRTIPVLALTRT | soluble
MLIKGLSDTLLENPLWQKTYLRSFMQFYSTNSLSWGQLSYEEGEIRNLHYGLIHSFQTSEIDTDSLPRILPANVPKQYTLCQAGDVAFADASEDTDEIGKAVEFIRTHKASVICGLHTIHGRDIKCKTLLGFKRVAFNSHYFHDQIKRLAQGTKVFSITSSNLSSCYIYIPDIVMQKSIVVLFEAYEEQLITNKRLLEQYEKQKRYLLQQMFILEHHHHHH | not soluble
MGSDKIHHHHHHMLNRLRAFRERGWREVDAPTYAQAWQRFGGSVATHPLVVEQLAEMAGIPVRYLGWESAGELVAAIPTWGRHLALSKDVLKRRGKKGLYDLGNAELILPVAGDARIALRHAGRYLSALHERNIVTLRPQTEQLAFARAPEDFSKKFRYNQRREVRLVEEAGGQVRQADSFAPAEFAAIYLELFQRRWGFPATGAERMAEVFERLRELLRGSVLLLNDQPIAVQVLYRAEAPGWLSVEYINGGVDPQTREFSPGSVLSYLNTQAAWEDARALGKPLRYSFGRADREYKDRWCHPSPVFQV | not soluble
MRFERFVGIDPSLRTGFVALSPFGEVIEAKEIEKEGDDPARMSKLIQVVVDSVHDTDFVAIEGFGYASQRGFLLGGIGWGMRMELYRRGIPYIDVAPSLLKKFAGAKGNANKEKVVLEVYKRWGFESDSNNVIDAFVLAQIARAAKTETKLIQAQKEVLNKLFK | not soluble
MSGSMLQLIDLCKGYVDGDEFHPVLQGAELTLNQGDQLALMGESGSGKSTLLNLIAGLDSADSGEIWFPGFPMHHTSEHHRTAFRRDNIGQIFQQYNLLPTLNIADNIRFCRQLKGLPEDAGLWRQILSALDLMPLLGRYPEEVSGGQQQRAAIARALYMEPKILLADEPTGSLDERNAEAVMRLLTTLTRQLNCALLLVTHSEKVAQHMDGCIRLQGGQLHVMARS | not soluble
MGSDKIHHHHHHMSNIKVLIQASSRSWAGGRDICMGLVNGEITVARTIKRALEAFPAAQLCLVAPEFDQDGELGGVIEYVKDKRLKAFYGFDESPLKRMIAASIELADNDYIVRIDGIHFCFDVDLSQKMLALALQKKLDCIKLPADFPVHFSSEVFRVGALRELVKLLDKPELEKFNIHPKIYFELNRYNYNFEYLRTLPQYSDEYLSECRKLAKDIYDIPRLEVGSKRTIWADTPSYHYQLALEYLNSNMKVLDIACGNGYGVRMMSTFLAEVHGADLDPEIINLAKAYTHEKNVEYYIEDITNLSFEDDSYDAVTCFETLEHIPEDDCLKELRRIIRPGGMLVLSTPQNSYGHIPVNACHIVEYSLDALLKLVGRYFLVVKVIGIKAGTIHSDADPYGTNTVLVCIKPF | not soluble
MSLDIFIMDPNEKLTSERLKDFLDRHAARLSRYERLMNMYMGKHPILYEKEKELGKPNNRLVVNFAKYIVDMLNGYFIGIPVKTIHENKEVAAKMKEIAKRNSQNDNNAELSKMCSIYGHAYEFLYQDENAHTRVTYVDPREAFVIYDNTVAQEPLYGVRVLKDDKERPYGTIYSRYDERDFFTSDDGELVIEEKGQEHFFGDVPLIEYVENNERQSAFESVETLINAYNKAISEKANDVDYFADAYLVILGAELDEETIKQIRDNRVINLKSGDGQKIVLEFLDKPNADTTQENLIERLERLIFQISMVANISDEKFGTSSGIALKYKLQPMENIALMKERKFNNGMIRRFKMMFNIPTNFGVDPDEYLNIEYVFTRNIPNNILEEAETAEKLAGITSRQTQLSVLSVVDNVQNELDRIQKEKEGEEINSFNRDMNSPFFGSGELDDGQEEEGHHHHHH | not soluble
MSLNTPQSAIIPDHAQAGIFIEADFAANRLNDIKAACRASLDALTALKARFPDDILGLTIAFGSKAWATFGHTDEGSEIKPFSEMGNGLAPSTQHDMSIHIQSFRQNAAYALAQSVLGAFGDSICVASEEHGLRLYQDRGLDGFVDGTENPQGDENVREVAIIPEGKPDAGGSYVLLQKYLHDLKKWDAVPVAEQEASVGRGKETDDEFGRDVRLPDSHLGRVNLKENGVGLKIVRRSLPFGKISGEHGLMFTAYCRTLHNIEAQLLSMFGDTDGKTDLLLRHLSAAVSGGYYYAPSVERLQNLEGGSHHHHHH | soluble
GSHMRTIIALETHDVRFPTSRELDGSDAMNPDPDYSAAYVVLRTDGAEDLAGYGLVFTIGRGNDVQTAAVAALAEHVVGLSVDKVIADLGAFARRLTNDSQLRWLGPEKGVMHMAIGAVINAAWDLAARAANKPLWRFIAELTPEQLVDTIDFRYLSDALTRDEALAILRDAQPQRAARTATLIEQGYPAYTTSPGWLGYSDEKLVRLAKEAVADGFRTIKLKVGANVQDDIRRCRLARAAIGPDIAMAVDANQRWDVGPAIDWMRQLAEFDIAWIEEPTSPDDVLGHAAIRQGITPVPVSTGEHTQNRVVFKQLLQAGAVDLIQIDAARVGGVNENLAILLLAAKFGVRVFPHAGGVGLCELVQHLAMADFVAITGKMEDRAIEFVDHLHQHFLDPVRIQHGRYLAPEVPGFSAEMHPASIAEFSYPDGRFWVEDLAASKAKA | soluble
MSLNFIDEFRDKESILALKKLIEQELKNPINIMEICGGHTHSIMKYALPSILPKEINFIHGPGCPVCVMPRVRIDTAIKLASMKDTIFCTLGDLLRVPGSEISLLDLRAKGADVRALYSPLEVLEIAKQNLNKNIIFFAIGFETTTPMSALLLQKVIEEKINNVFFHINHITVPAPVEAIMNDENVKINAFLGPSHVSVITGYGIYEPLAAKFKTPIAVSGFEPVDILESVLNIIKQSNEGTFKVYNQYKRAVSKEGNVKAQNLVKKYFRVCDFEFRGLGLIKNGGLELKEEFSAYDASKKFDCTVQSKNESKACICGQILRGLAKPYDCKVFGKACTPRSPIGSCMVSGEGACAAYYKYSKVNAEGHHHHHH | soluble
QGQFFREIENLKEYFNASSPDVAKGGPLFSEILKNWKDESDKKIIQSQIVSFYFKLFENLKDNQVIQRSMDIIKQDMFQKFLNGSSEKLEDFKKLIQIPVDDLQIQRKAINELIKVMNDLS | soluble
MSASRQRPGNHLLPTLFDRLCDDAPNQKRDHGISVSPVQIKEIIRRDLSFLLNTVSHEDDIDAARYPYAAASVLNYGLPPLAGSFLYEHKWDDIRRAILRTITRFEPRLKASTLQIIPLQDERRQSGHNTLQFEIRGEILTQPYPTAFRVRSALDMEQSRITFF | not soluble
MSMEPTLQSILDQRSLRWIFVGGKGGVGKTTTSCSLAIQLAKVRRSVLLLSTDPAHNLSDAFSQKFGKEARLVEGFDNLYAMEIDPNGSMQDLLAGQTGDGDAGMGGVGVMQDLAYAIPGIDEAMSFAEVLKQVNSLSYETIVFDTAPTGHTLRFLQFPTVLEKALAKVSQLSGQYGSLLNGILGGSGTLPNGQTLSDVMEKLDSLRVTISEVNAQFKDERLTTFVCVCIPEFLSLYETERMIQELANYGIDTHCIVVNQLLFPKPGSDCEQCTARRRMQKKYLDQIEELYDEEFNVVKMPLLVEEVRGKERLEKFSEMLIKPFVPPEHHHHHH | soluble
MSRDLPSLNALRAFEAAARLHSISLAAEELHVTHGAVSRQVRLLEDDLGVALFGKDGRGVKLTDSGVRLRDACGDAFERLRGVCAELRRQTAEAPFVLGVPGSLLARWFIPRLDQLNRALPDLRLQLSTSEGEFDPRRPGLDAMLWFAEPPWPADMQVFELAPERMGPVVSPRLAQETGLAQAPAARLLQEPLLHTASRPQAWPAWAASQGLAAEALRYGQGFEHLYYLLEAAVAGLGVAIAPEPLVRDDLAAGRLAAPWGFIETDARLALWVPARLHDPRAGRLAQWLREQLAG | not soluble
SGRLSVSRQNFEVHKHLNRLNKPAVKSIQSPDGDIIDCVHISKQPAFDHPFLKDHKIQMGPSYTPESLFGESKVSEKPKESVNPITQLWHQNGVCSEGTIPVRRTKKEDVLRASSVKRYGKKKHLSVPLPRSADPDLINQSGHQHAIAYVEGGKFYGAKATINVWEPKVQSSNEFSLSQLWILGGSFGQDLNSIEAGWQVSPDLYGDNNTRLFTYWTSDAYQATGCYNLLCSGFIQINSQIAMGASISPVSGFHNPQYDISITIWKDPKEGHWWMQFGDGYVLGYWPSFLFSYLADSASIVEWGGEVVNMEEDGHHTTTQMGSGQFPDEGFTKASYFRNIQVVDSSNNLKEPKGLNTFTEKSNCYDVEVGKNDDWGHYFYYGGPGRNPNCQ | soluble
MSLKYEYCPICGKKLEKKYSYDEGDVPYCQKDKIMFFDVPKPCVLVAVIKGQEILLLKQEYTFKDSKILVSGYVANGETVEETVVREVKEEVGIIVEKPEYLGSYYFKPKELIMLTFMVRYVSGEITKSQEVDEAYWVNMRDVLQEMNEDKVGKDVVKKVFKRIGYNEEKYLHKEGHHHHHH | not soluble
MASIMYTPKDIFEQEFKSSMRGYDKKEVDEFLDDIIKDYETYISTIEELRQENTRLKEEVKQAKKRQEAAQTTVSPAASVSSSRVATTATNFDILKRISRLEKEVFGKQITE | not soluble
IPLPEQPGGSSDFIAFTDKAKLTFTTSRPMKMVYTLDETEPTLTSTPYTVPLEFAQTGLLKIRTVTAGGKMSPVRRIRVEKQPFNMSMEVPAPKPGLTIRTAYGDLYDVPDLQQVASWEVGTVSSLEEIMHGKEKITSPEVLERRVVEATGYVLIPEDGVYEFSTENNEFWIDNVKLIDNVGEVKKFSRRNSSRALQKGYHPIKTIWVGAIQGGWPTYWNYSRVMIRLKGEEKFKPISSDMLFQ | not soluble
MKSLIIVNPADCIGCRTCEVACVVAHPSEQELNADVFLPRLKVQRLDSISAPVMCHQCENAPCVGACPVGALTMGEQVVQTNSARCIGCQSCVSACPFGMITIQSLPGDTRQQIVKCDLCEQREEGPACVESCPTQALQLLTERELRRVRQQRIVASGENPL | not soluble
DKIGTAVLQGVMQGRRAKDVAKEIEQITDATASRATFIARDQTSKMNAAFNEIRQVGLGIESYTWQTSGDERVREDHAAHDGTVFRWSDPPATGHPGQDYNCRCVAIPNVTLEGP | not soluble
